In paper PMC10144703, “Molecular Mechanism of Sirtuin 1 Inhibition by Human Immunodeficiency Virus 1 Tat Protein” (Life, 2023):

Biological target: T1, human full-length Sirt1 (fl-Sirt1) (Homo sapiens, UniProt Q96EB6)
T1 construct: human full-length Sirt1 (fl-Sirt1) in pET-15b; made in house; host or cells: E. coli CodonPlus(DE3)
T1 sequence (Q96EB6 1-747): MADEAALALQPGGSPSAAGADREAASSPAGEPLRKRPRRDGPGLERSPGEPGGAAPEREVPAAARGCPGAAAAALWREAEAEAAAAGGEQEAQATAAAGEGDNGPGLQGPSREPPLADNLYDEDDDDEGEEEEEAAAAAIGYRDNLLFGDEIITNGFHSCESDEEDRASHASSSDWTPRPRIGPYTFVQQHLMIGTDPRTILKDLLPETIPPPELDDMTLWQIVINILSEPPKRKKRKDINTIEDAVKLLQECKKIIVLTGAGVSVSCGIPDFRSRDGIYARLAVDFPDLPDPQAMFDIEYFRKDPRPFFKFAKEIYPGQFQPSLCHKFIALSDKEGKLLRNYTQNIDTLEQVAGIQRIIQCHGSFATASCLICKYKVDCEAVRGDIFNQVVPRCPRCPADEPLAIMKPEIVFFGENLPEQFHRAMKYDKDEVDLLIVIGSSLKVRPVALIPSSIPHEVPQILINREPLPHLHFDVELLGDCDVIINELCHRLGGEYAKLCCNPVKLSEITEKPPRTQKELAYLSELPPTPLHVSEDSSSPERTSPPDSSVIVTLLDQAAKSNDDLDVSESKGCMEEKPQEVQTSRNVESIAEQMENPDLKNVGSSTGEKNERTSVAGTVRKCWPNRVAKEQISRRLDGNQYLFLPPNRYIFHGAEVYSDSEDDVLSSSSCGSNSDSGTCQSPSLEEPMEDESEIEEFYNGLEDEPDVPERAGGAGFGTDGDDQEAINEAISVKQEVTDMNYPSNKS
Assay: FdL deacetylation assay, fl-Sirt1
Format: biochemical
Conditions: FdL assay, 100 µM FdL-1, 500 µM NAD^+, pH 7.8, 37 °C; n = 2; read-out: IC50, fl-Sirt1, truncated Tat-Cys^− constructs
Excerpt: A human mini-Sirt1 construct (aa 183-505-(GGGS)2-641-665), as described in [27], was generated in a modified pET-19b with a TEV cleavage site. This construct and human full-length Sirt1 (fl-Sirt1) in pET-15b, Sirt1-(183-664) and Sirt1-(214-664) in pET-15b, mini-Sirt1-∆SBD (aa 214-505-(GGGS)2-641-665) and mini-Sirt1-∆ESA (aa 183–505) in a modified pET-19b with TEV cleavage site, Sirt2-(43-356) in a modified pET-19b with a His6-Sumo tag, Sirt3-(93-399) in a modified pET-32a with Trx-His6 tag and TEV cleavage site, hSirt3-(118-399) in pVFT3S (Sungkyunkwan University, Seoul, Republic of Korea) with His6-Trx tag and TEV cleavage site, Sirt5-(34-302) in pET-151/D-TOPO, and Sirt6-(1-355) in pQE80L.1 were purified as described. Shortly, proteins were expressed at 20 °C (mini-Sirt1 constructs at 16 °C) in E. coli CodonPlus(DE3), cell lysates were cleared by centrifugation, and proteins were purified via affinity chromatography using a nickel NTA column. After digestion with thrombin or TEV protease, proteins were re-run over the nickel NTA column, pooled, and concentrated. The samples were, then, subjected either directly to size exclusion chromatography in 50 mM Tris/HCl, pH 8.0, 150 mM NaCl, 1 mM TCEP, or to an ion exchange chromatography followed by size exclusion chromatography. […]

B1: Tat-Cys^− residues 1–63: C-terminally shortened Tat-Cys^− construct, residues 1–63 (protein)
chain: MDPVDPNIEPWNHPGSQPKTASNRAHAKKSAYHSQVAFITKGLGISYGRKKRRQRRRPSQGGQ
- IC50: ~10 µM
